According to patent US20030092613A1, “Alpha7 nicotinic receptor peptides as ligands for beta amyloid peptides” (priority 2000, published 2003):

Target: β-amyloid1-42 (UniProt P05067)
Experiment: cell-based or functional assay

ACh rel % Inh @ 100 µM [%]	Inh ACh rel IC50 [µM]	Substance
54	< 10	(Ac)FYEC (peptide)
62	< 10	(Ac)YECC-amide (peptide)
